Measured values published in patent US20060172374A1 (Novartis, published 2006).

Tests used:
HA-NDR1 T74A = target: T1, HA-NDR1 T74A (human, UniProt Q15208 1-465); test: co-immunoprecipitation of myc-hMOB1 with HA-NDR, OA-treated COS-1 cells
T1 construct: pCMV5_HA-NDR1 mutant expressed in COS-1 cells; also called T74A mutant

HA-tagged NDR1 wild type = target: T2, HA-tagged NDR1 wild type (human, UniProt Q15208 1-465); test: co-immunoprecipitation, summary of Example 8
T2 construct: also called HA-NDR1; HA-NDR

[1] = target: T3, HA-NDR N-terminal point mutant, arginine 41 to alanine (human, UniProt Q15208 1-465); test: co-immunoprecipitation of myc-hMOB1 with HA-NDR point mutants, OA-treated COS1 cells
T3 construct: also called arginine 41 mutant

[2] = target: T4, HA-NDR N-terminal point mutant, tyrosine 31 to alanine (human, UniProt Q15208 1-465); test: as above
T4 construct: also called tyrosine 31 mutant

[3] = target: T5, HA-NDR N-terminal point mutant, arginine 78 to alanine (human, UniProt Q15208 1-465); test: as above
T5 construct: also called arginine 78 mutant
T5 sequence (Q15208 other isoform, or with tags, fused parts or gaps mutant limits assumed): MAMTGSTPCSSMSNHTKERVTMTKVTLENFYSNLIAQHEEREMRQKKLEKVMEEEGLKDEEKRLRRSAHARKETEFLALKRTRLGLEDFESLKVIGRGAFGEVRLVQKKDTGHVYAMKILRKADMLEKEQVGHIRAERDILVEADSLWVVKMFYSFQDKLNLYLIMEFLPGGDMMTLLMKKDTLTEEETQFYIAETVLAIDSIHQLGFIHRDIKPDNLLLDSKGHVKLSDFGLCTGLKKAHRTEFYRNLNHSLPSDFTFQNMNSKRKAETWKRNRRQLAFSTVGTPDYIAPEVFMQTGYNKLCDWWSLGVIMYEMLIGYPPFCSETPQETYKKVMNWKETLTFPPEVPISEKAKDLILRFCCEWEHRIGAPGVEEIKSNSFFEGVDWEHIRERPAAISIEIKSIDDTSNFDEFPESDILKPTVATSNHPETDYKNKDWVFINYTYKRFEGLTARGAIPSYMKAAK

T1 sequence (Q15208 whole entry T74A): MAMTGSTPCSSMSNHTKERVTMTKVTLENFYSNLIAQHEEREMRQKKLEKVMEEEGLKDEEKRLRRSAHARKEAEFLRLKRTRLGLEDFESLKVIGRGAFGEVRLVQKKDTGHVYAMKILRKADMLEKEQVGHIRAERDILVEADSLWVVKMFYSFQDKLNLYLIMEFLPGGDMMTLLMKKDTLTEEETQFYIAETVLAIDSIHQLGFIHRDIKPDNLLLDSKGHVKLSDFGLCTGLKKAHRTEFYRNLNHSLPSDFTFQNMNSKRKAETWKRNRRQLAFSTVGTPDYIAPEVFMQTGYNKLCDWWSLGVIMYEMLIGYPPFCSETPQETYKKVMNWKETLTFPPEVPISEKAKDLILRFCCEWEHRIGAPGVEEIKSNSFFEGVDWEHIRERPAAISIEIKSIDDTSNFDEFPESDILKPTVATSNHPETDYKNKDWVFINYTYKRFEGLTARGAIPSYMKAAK
T4 sequence (Q15208 other isoform, or with tags, fused parts or gaps mutant limits assumed): as the sequence (Q15208 whole entry T74A) above, with Y31A, A74T counted along it
T3 sequence (Q15208 other isoform, or with tags, fused parts or gaps mutant limits assumed): as the sequence (Q15208 whole entry T74A) above, with R41A, A74T counted along it
T2 sequence (Q15208 whole entry): as the sequence (Q15208 whole entry T74A) above, with A74T counted along it

binding result (HA-NDR1 T74A): no binding | binding result (HA-tagged NDR1 wild type): binds | binding result [1]: no binding | binding result [2]: no binding | binding result [3]: no binding
B1: myc-tagged hMOB1 (other, not shown: small tags and cut ends)
chain: MSFLFSSRSSKTFKPKKNIPEGSHQYELLKHAEATLGSGNLRQAVMLPEGEDLNEWIAVNTVDFFNQINMLYGTITEFCTEASCPVMSAGPRYEYHWADGTNIKKPIKCSAPKYIDYLMTWVQDQLDDETLFPSKIGVPFPKNFMSVAKTILKRLFRVYAHIYHQHFDSVMQLQEEAHLNTSFKHFIFFVQEFNLIDRRELAPLQELIEKLGSKDR
modifications: okadaic acid induced modification of MOB1 (not identified) in cells treated with okadaic acid
notes: also called myc-hMOB1; myc-mob1
